Reference: US20040091503A1

Target: murine GM-CSF receptor (on FDC-P1 cells) (murine) (UniProt Q00941)
Assay: cell-based or functional assay

Chain of UniProt Q00941 (Q00941 30-388, chain 1 of 2): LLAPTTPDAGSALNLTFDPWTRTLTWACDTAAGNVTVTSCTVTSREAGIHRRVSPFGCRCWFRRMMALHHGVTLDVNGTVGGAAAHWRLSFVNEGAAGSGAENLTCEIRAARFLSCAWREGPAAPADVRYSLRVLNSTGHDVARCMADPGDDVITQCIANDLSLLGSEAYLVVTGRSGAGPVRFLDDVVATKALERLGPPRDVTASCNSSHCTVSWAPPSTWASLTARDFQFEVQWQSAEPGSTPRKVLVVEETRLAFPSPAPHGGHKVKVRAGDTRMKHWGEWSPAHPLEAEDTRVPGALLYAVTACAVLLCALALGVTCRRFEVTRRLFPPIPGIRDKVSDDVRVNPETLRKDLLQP
Chain of UniProt Q00941 (P26955 23-896, chain 2 of 2, further chain): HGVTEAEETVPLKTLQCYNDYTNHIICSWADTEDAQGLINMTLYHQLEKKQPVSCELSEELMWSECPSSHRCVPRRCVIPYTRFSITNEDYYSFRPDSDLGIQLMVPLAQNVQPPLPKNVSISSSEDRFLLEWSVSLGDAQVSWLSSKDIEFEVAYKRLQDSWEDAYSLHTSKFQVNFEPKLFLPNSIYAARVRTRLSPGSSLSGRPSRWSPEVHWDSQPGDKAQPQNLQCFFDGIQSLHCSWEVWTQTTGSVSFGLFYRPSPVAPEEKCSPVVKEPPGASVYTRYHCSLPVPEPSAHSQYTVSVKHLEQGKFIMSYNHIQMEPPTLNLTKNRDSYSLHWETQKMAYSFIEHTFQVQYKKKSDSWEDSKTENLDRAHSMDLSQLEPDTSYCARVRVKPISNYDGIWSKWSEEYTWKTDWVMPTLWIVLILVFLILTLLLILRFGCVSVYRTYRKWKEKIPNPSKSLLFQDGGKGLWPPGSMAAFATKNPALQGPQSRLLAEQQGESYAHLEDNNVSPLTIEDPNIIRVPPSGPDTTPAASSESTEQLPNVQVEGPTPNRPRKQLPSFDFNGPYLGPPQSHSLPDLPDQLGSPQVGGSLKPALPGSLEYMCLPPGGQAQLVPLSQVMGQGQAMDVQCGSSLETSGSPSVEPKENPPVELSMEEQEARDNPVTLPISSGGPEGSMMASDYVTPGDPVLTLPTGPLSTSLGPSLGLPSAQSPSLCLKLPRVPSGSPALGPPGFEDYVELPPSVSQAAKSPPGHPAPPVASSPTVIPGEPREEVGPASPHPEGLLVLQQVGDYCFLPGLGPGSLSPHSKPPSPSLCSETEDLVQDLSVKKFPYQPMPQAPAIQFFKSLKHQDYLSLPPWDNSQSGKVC

GPI-GM-CSF (murine GM-CSF fused to the S. cerevesiae Gas1 GPI modification signal sequence) (from UniProt P01587 18-141; P22146 474-528) (ligand; the values are: proliferation increase over soluble GM-CSF)
proliferation of FDC-P1 cells (Biotrak Cell Proliferation ELISA, BrdU): 25%
